# Test results published in patent US11795488B2, “Methods for enzymatic peptide ligation” (NANYANG TECHNOLOGICAL UNIVERSITY, priority 2016, dated 2023).
# Values joined by “and” are separate entries in the source; they are usually repeats but may differ in a detail not shown here. Equal values may be shown once.
# B1: OaAEP1: wild type asparaginyl endopeptidase from Oldenlandia affinis, SEQ ID NO:3, weak peptide cyclase (protein, listed as Ovaloparmena affinis)
# chain: MVRYLAGAVLLLVVLSVAAAVSGARDGDYLHLPSEVSRFFRPQETNDDHGEDSVGTRWAVLIAGSKGYANYRHQAGVCHAYQILKRGGLKDENIVVFMYDDIAYNESNPRPGVIINSPHGSDVYAGVPKDYTGEEVNAKNFLAAILGNKSAITGGSGKVVDSGPNDHIFIYYTDHGAAGVIGMPSKPYLYADELNDALKKKHASGTYKSLVFYLEACESGSMFEGILPEDLNIYALTSTNTTESSWCYYCPAQENPPPPEYNVCLGDLFSVAWLEDSDVQNSWYETLNQQYHHVDKRISHASHATQYGNLKLGEEGLFVYMGSNPANDNYTSLDGNALTPSSIVVNQRDADLLHLWEKFRKAPEGSARKEEAQTQIFKAMSHRVHIDSSIKLIGKLLFGIEKCTEILNAVRPAGQPLVDDWACLRSLVGTFETHCGSLSEYGMRHTRTIANICNAGISEEQMAEAASQACASIP
# B2: Cys217Ala (protein)
# chain: MVRYLAGAVLLLVVLSVAAAVSGARDGDYLHLPSEVSRFFRPQETNDDHGEDSVGTRWAVLIAGSKGYANYRHQAGVCHAYQILKRGGLKDENIVVFMYDDIAYNESNPRPGVIINSPHGSDVYAGVPKDYTGEEVNAKNFLAAILGNKSAITGGSGKVVDSGPNDHIFIYYTDHGAAGVIGMPSKPYLYADELNDALKKKHASGTYKSLVFYLEAAESGSMFEGILPEDLNIYALTSTNTTESSWCYYCPAQENPPPPEYNVCLGDLFSVAWLEDSDVQNSWYETLNQQYHHVDKRISHASHATQYGNLKLGEEGLFVYMGSNPANDNYTSLDGNALTPSSIVVNQRDADLLHLWEKFRKAPEGSARKEEAQTQIFKAMSHRVHIDSSIKLIGKLLFGIEKCTEILNAVRPAGQPLVDDWACLRSLVGTFETHCGSLSEYGMRHTRTIANICNAGISEEQMAEAASQACASIP
# B3: Asn346Ala-Gln347Ala-Asp349Ala-Asp351Ala (protein)
# chain: MVRYLAGAVLLLVVLSVAAAVSGARDGDYLHLPSEVSRFFRPQETNDDHGEDSVGTRWAVLIAGSKGYANYRHQAGVCHAYQILKRGGLKDENIVVFMYDDIAYNESNPRPGVIINSPHGSDVYAGVPKDYTGEEVNAKNFLAAILGNKSAITGGSGKVVDSGPNDHIFIYYTDHGAAGVIGMPSKPYLYADELNDALKKKHASGTYKSLVFYLEACESGSMFEGILPEDLNIYALTSTNTTESSWCYYCPAQENPPPPEYNVCLGDLFSVAWLEDSDVQNSWYETLNQQYHHVDKRISHASHATQYGNLKLGEEGLFVYMGSNPANDNYTSLDGNALTPSSIVVAARAAALLHLWEKFRKAPEGSARKEEAQTQIFKAMSHRVHIDSSIKLIGKLLFGIEKCTEILNAVRPAGQPLVDDWACLRSLVGTFETHCGSLSEYGMRHTRTIANICNAGISEEQMAEAASQACASIP
# B4: Cys217Ser (protein)
# chain: MVRYLAGAVLLLVVLSVAAAVSGARDGDYLHLPSEVSRFFRPQETNDDHGEDSVGTRWAVLIAGSKGYANYRHQAGVCHAYQILKRGGLKDENIVVFMYDDIAYNESNPRPGVIINSPHGSDVYAGVPKDYTGEEVNAKNFLAAILGNKSAITGGSGKVVDSGPNDHIFIYYTDHGAAGVIGMPSKPYLYADELNDALKKKHASGTYKSLVFYLEASESGSMFEGILPEDLNIYALTSTNTTESSWCYYCPAQENPPPPEYNVCLGDLFSVAWLEDSDVQNSWYETLNQQYHHVDKRISHASHATQYGNLKLGEEGLFVYMGSNPANDNYTSLDGNALTPSSIVVNQRDADLLHLWEKFRKAPEGSARKEEAQTQIFKAMSHRVHIDSSIKLIGKLLFGIEKCTEILNAVRPAGQPLVDDWACLRSLVGTFETHCGSLSEYGMRHTRTIANICNAGISEEQMAEAASQACASIP
# B5: AEP-holo (activated form of OaAEP1, without the C-terminal cap domain) (enzyme)
# chain: SVGTRWAVLIAGSKGYANYRHQAGVCHAYQILKRGGLKDENIVVFMYDDIAYNESNPRPGVIINSPHGSDVYAGVPKDYTGEEVNAKNFLAAILGNKSAITGGSGKVVDSGPNDHIFIYYTDHGAAGVIGMPSKPYLYADELNDALKKKHASGTYKSLVFYLEACESGSMFEGILPEDLNIYALTSTNTTESSWCYYCPAQENPPPPEYNVCLGDLFSVAWLEDSDVQNSWYETLNQQYHHVDKRISHASHATQYGNLKLGEEGLFVYMGSNPANDNYTSLDGNALTPSSIVVNQRDAD
# notes: also called mature OaAEP1
# Legend:
# [1] = test system: peptide substrate "[…]" (SEQ ID NO: 18); experiment: Peptide cyclization assay, kinetic analysis (HPLC/MS); type: biochemical; conditions: cyclization of GLPVSTKPVATRNGL, 37° C., enzyme 700 nM
# Procedure: Native and modified amino acids were purchased from Sigma-Aldrich (USA). All peptides used in this manuscript were synthesized in-house using the solid-phase method and HPLC purified. Cyclization assays were performed in 50-μl reaction mixtures containing 20 mM phosphate buffer, ligases (5 to 700 nM) and peptide substrates (10 to 300 μM). Each reaction was performed in triplicate at 37° C. and quenched by adding 5 μl of 1 M HCl solution. The peptides were separated by using a reversed-phase C18 analytical column (150×2.1 mm, Vydac) with a linear gradient from 10% to 50% acetonitrile over 15 min on a Nexera UHPLC system (Shimadzu). For kinetic analysis, the concentrations of WT OaAEP1, mutant OaAEP1, and butelase 1 were fixed at 700 nM, 50 nM, and 20 nM, respectively. The cyclization velocities were calculated by converting the HPLC-peak areas of remained linear precursors or the cyclized products into concentrations. The identity of each HPLC peak was analyzed by MALDI-TOF MS (ABI 4800 MALDI TOF/TOF). The velocities were input into GraphPad Prism (GraphPad Software, San Diego) to obtain the Michaelis-Menten curve and the kinetic parameters (kcat and Km). Comparison for the cyclization efficiency of various OaAEP1 mutants were performed in a volume of 20 μl of the reaction mixture and analyzed by MALDI-TOF MS after 10 mins or 1 hour ligation reaction.
# The peptide cyclization activity of mature OaAEP1 was then analyzed using MS and the peptide substrate “[…]” (SEQ ID NO: 18) (FIG. 5A). The turn-over rate (kcat) for OaAEP1 is 0.052 s^−1, a value in good agreement with the previous report (Harris, K. S., et al., Nat Commun, 2015. 6: p. 10199). Likewise, the cyclization activity of butelase 1 extracted from plant was measured using the 15 residues peptide “[…]” (SEQ ID NO: 19) (FIG. 5A) leading to a kcat about 90 times faster than OaAEP1 b.
# [2] = test system: ubiquitin and SNAP tag protein; experiment: Ligation of two well-folded proteins; type: biochemical
# Procedure: (a) Fluorescence detection using 02 benzylcytosine-Alexa647 of the SNAP protein and SDS PAGE analysis with Comassie blue staining detection of the protein substrate and ligated products. The reaction is schematically depicted as inset. Cys247Ala ligates well folded protein well. […] (b) As little as 30 nM Cys247Ala catalyze ligation of 100 μM Ubiquitin and 500 μM biotin labelled peptide efficiently in 30 min, at room temperature, in pH 7.4 PBS buffer.
# The ability of Cys247Ala to ligate ubiquitin with a peptide was first tested. The three residues“Asn-Gly-Leu” were added to the C-terminus of ubiquitin to make it recognizable by Cys247Ala. Another peptide having N-terminal residues GlyLeu was used as the add-on component. At a protein: peptide molar ratio of 1:5, Cys247Ala catalyzed the ligation of more than 90% ubiquitin with the peptide within 10 min (FIG. 6). An amount of 30 nM of Cys247Ala was enough for the reaction compared to 10-30 μM of sortase A typically required to perform productive ligations. […] Ubiquitin having the same “Asn-Gly-Leu” modification at its C-terminal end and a N-terminal modified SNAP (NEB) tag protein were used as substrates. […] Protein ligation can be performed within minutes at neutral pH and at room temperature.
# OaAEP1 [3] = experiment: Self-activation (acid-induced self-cleavage) of OaAEP1 and mutants, SDS PAGE; type: biochemical, Oldenlandia affinis; conditions: for self-activation (auto-activation): acidic pH
# Procedure: To self-activate OaAEP1, 1 mM EDTA and 0.5 mM Tris (2-carboxyethyl) phosphine hydrochloride were added to the immature protein and the pH of the solution was adjusted to 4 with glacial acetic acid. Fractions containing the protein (as analyzed by SDS-PAGE) were pooled and then incubated for 3 to 16 hours at room temperature or 37° C. Protein precipitation at this pH allowed removal of the bulk of the contaminating proteins by centrifugation. Activated proteins were concentrated by ultracentrifugation using a 50 kDa cutoff concentrator (Sartorius) and stored at −80° C.
# OaAEP1 was cloned and expressed in E. coli as an ubiquitin fusion protein as reported earlier (FIG. 2) (Harris, K. S., et al., Nat Commun, 2015. 6: p. 10199). Using ion exchange and size exclusion chromatography (SEC), sufficient amounts of pure protein suitable for enzymatic and structural analysis were obtained (FIG. 2B). At the neutral pH of purification (pH=7.4), OaAEP1 was mainly present as a heterodimer, where both monomers are in their zymogenic form, but only one monomer had retained in addition the ubiquitin and N-terminal His-tag, while the fusion moiety was cleaved in the other monomer (labeled as “His-Ub-AEP-FL” and “AEP-FL” in FIG. 2B and FIG. 2C). This heterodimer was subjected to crystallization trials for structural studies (see below). In agreement with reference (Harris, K. S., et al., Nat Commun, 2015. 6: p. 10199), activation of OaAEP1 was optimum for pH values in the range of 3.4-4.0 (FIG. 2D). Following activation, OaAEP1 converts to a monomer in solution according to SEC analysis (“AEP-holo” in FIG. 2C). To test the ability of the protein to be activated in trans, the catalytic residue Cys217 was mutated into Ser217.
# Since the crystallization conditions are compatible with OaAEP1 activation, the present crystal structure is likely to have captured one of the conformational states occurring along the activation pathway. To determine whether Gln347 belongs to the segment recognized and cleaved during self-activation, mutagenesis experiments targeting region 346-351 of the OaAEP1 protein were performed (FIG. 4C). The role of Gln347 in OaAEP1 auto-activation was particularly assessed by mutating this residue to Ala, and whether enzyme activation was abolished was examined. Only little impact was found on the mutant enzyme activation (FIG. 4C). Residues Asn346, Asp349 and Asp351 that are next to Gln347 were then targeted. […] Thus, trans-activation requires the presence of at least one of the four Asx/Gln residues (with a slight preference for Asp349 or Asp351) found in this segment of the linker.
# OaAEP1 [4] = experiment: Trans-activation of inactive mutants by wild type OaAEP1; type: biochemical, Oldenlandia affinis
# Excerpt: (a) Schematic illustration of the His-Ub-OaAEP1 construct used with the boundaries of the three regions of the protein indicated and the deduced activation segment. 6-His tag and Ubiquitin tag followed by OaAEP1 (24-474) was synthesized and inserted into pET28b vector. After Ni-NTA affinity purification, about half of Ub-AEP-FL lost the N-terminal fusion tags and was purified in AEP-FL form (53-474), which was eventually crystallized. The enzymatic active form of OaAEP1b, AEP-holo (53-347/351) is the acidic induced self-cleavage product of AEP-FL, which lost the C-terminal auto inhibitory cap domain. (b) SDS PAGE analysis of fractions obtained over the course of chromatographic purification and of dissolved crystals. (c) Size-exclusion chromatography profiles of OaAEP1 before and after activation showing Ub-AEP-FL and AEP-FL heterodimer and the AEP-holo monomer. The elution volumes of standard proteins are indicated for comparison. (d) SDS PAGE analysis of OaAEP1 pH-dependent activation. The activation was performed for 3 hours, and the peak of activation is in between pH 3.4 to 4.
# OaAEP1 was cloned and expressed in E. coli as an ubiquitin fusion protein as reported earlier (FIG. 2) (Harris, K. S., et al., Nat Commun, 2015. 6: p. 10199). Using ion exchange and size exclusion chromatography (SEC), sufficient amounts of pure protein suitable for enzymatic and structural analysis were obtained (FIG. 2B). […]
# Since the crystallization conditions are compatible with OaAEP1 activation, the present crystal structure is likely to have captured one of the conformational states occurring along the activation pathway. […] The role of Gln347 in OaAEP1 auto-activation was particularly assessed by mutating this residue to Ala, and whether enzyme activation was abolished was examined. […]
# [5] = biological target: the molecule itself; experiment: size exclusion chromatography (self-association)
molecule,measurement,setting,value
B1,turn-over rate (kcat),[1],0.052 s⁻¹
same,protein ligation activity (control ligation experiments),[2],but not with the OaAEP1 wild type construct
same,ligation of SNAP tag protein with Ubiquitin,"[2]; 5 μM SNAP tag, 100 nM Cys247Ala, 4000 nM wild type OaAEP1b",not
same,pH optimum of activation,OaAEP1 [3]; activation for 3 hours,3.4-4.0 pH and 3.4 to 4 pH
B2,self-activation (auto-activation),OaAEP1 [3],devoid of self-activation activity
same,activation in trans by wild type OaAEP1,OaAEP1 [4],trans-cleavage and activation of most of the AEP-FL Cys217Ala after 18 hours
B3,self-activation (auto-activation),OaAEP1 [3],most significantly impaired auto-activation activity
same,self-activation (auto-activation),OaAEP1 [3]; listed as A4,more severe loss of function phenotype
same,activation in trans by wild type OaAEP1,OaAEP1 [4],could not be rescued in trans
B4,activation and ligase activity of active site mutant,OaAEP1 [3],only displayed background level activation and ligase activity
same,activation in trans by wild type OaAEP1,OaAEP1 [4],could be rescued in trans by addition of only 10% of wild type OaAEP1
B5,binding result,[5],no binding
